According to the DeepSol protein solubility set:

Assay: soluble on expression in E. coli; label from the status in PepcDB or PDB records

Sequence | soluble on expression in E. coli
MSLRYPMSKLAYHRVLLKLSGEALMGSADYGIDPKVINRLAGEVIEAQNAGAELALVIGGGNIFRGAGLAAKGMDRVTGDHMGMLATIINALAMQDALEKLGTKVRVMSAIKINNVCEDFIRRRAIRHLEKSRITIFAAGTGNPFFTTDSGAALRAIEIGADLLLKATKVDGIYNKDPQKHCDAVKYSTLSYDEVISQNLEVMDTAAFALARDSNLPLRIFDIEQPGVLLRILHGEEIGTLVKERNSKSEGHHHHHH | not soluble
MSLSADFSQPLADRLRPRTLDEYIGQLHLIEPGRPLYESIRRGRLHSMIFWGPPGTGKTTLARLVARHADAEFLPVSAVLSGVKEIREALARAVQFKAAGRRAILFVDEVHRFNKSQQDAFLAHVEDGTVSFIGATTENPSFEVNSALLSRARVYVLKALTEADLLGVIDRALSDAERGLGGRGLNMSDPVRMAYVRAADGDARRLLNLLEITADLLDAGQTVVSEEVARQVLASGTTRRFDKQGEEFYNQISALHKSVRGSSPDAALYWLCRMLDGGCDPLYLARRLVRIASEDIGNADPKALELCLNAWNAQERLGSPEGELALAQAVVYLAVAPKSNAVYEAYKAARADAARSGSLPVPLHLRNAPTGLMKGLDYGKGYRYAHDYPDAYVPGENYFPEGLERREYYRPVNRGMEIKIAEKLERLKALDKEADEGHHHHHH | not soluble
MSLSAFLPSLDTPVALLDMPRMQRNIQRMQQRMNELGVRLRPHVKTSKSLPVIQAQMAAGARGVTVSTLKEAEHCFAEGISDVFYAVAIAPGKLDQALKLRRIGCRLSILTDSVVAAQAIVAFGQQHDEQFQVWIEIDCDGHRSGLTVEDNALIEVARTLVEGGMQLRGVMTHAGSSYDLDTPEALQALAEQERLLCVSAAERIRQAGLPCPEVSIGSTPTALSAQGLAGVTEVRAGVYVFFDLVMHNIGVCGADEGHHHHHH | not soluble
MSLSARSSASSWSEEPVQSNMDISTGHMILSYMEDHLKNKNRLEKEWEALCAYQAEPNSSFVAQREENVPKNRSLAVLTYDHSRVLLKAENSHSHSDYINASPIMDHDPRNPAYIATQGPLPATVADFWQMVWESGCVVIVMLTPLAENGVRQCYHYWPDEGSNLYHIYEVNLVSEHIWCEDFLVRSFYLKNLQTNETRTVTQFHFLSWYDRGVPSSSRSLLDFRRKVNKCYRGRSCPIIVHCSDGAGRSGTYVLIDMVLNKMAKGAKEIDIAATLEHLRDQRPGMVQTKEQFEFALTAVAEEVNAILKALPQEGHHHHHH | soluble
MSLSASTHDLVIIGAGPAGMSAALTAASLGMKTLLLDEQLRPGGQIYRNITAVPPSVAALLGPDYRHGEGLAARLGRSGVELRFGAMVWDVARDLTVTAQQDGQSFQVRAPQLIAATGAMERASPIPGWTLPGVLNAGAAQIALKSASAVPSGRVVLAGSGPLLLLVACQLLDAGVSLAGIVETSPSTNRWRALRHLPAALGAHAYLAKGLRMLWRLRRAGVPMFAAATSLRVEGGERVQALAFKADRIDHLLHADVVLLHHGVVPNTQLSRLLRVDHDWDLVQLAWRPQVNAWGETSLAGFRVAGDGAAIAGAQAAEPNGTLAALGAAQALGRLDVTECEQRAASARGTLKRQLRIRPFLDALYRPPEWLSDPTDETVVCRCEEVTAGRVREMARLGCQGPNQTKFFSRCGMGPCQGRVCGLTVTQILSTELGRPPSEVGAYHIRSPLKPVPLASIAALADTATIENSEPMETTEGHHHHHH | not soluble
MSLSDAAAVTVVEQTEKRHKLIGYWHNFVNGAGCPIRLADMADAWDVIDIAFAENDRNSDGTVHFNLYSGDIYSDCPALDPTQFKQDMAALQAKGKKFVLSLGGAEGTITLNTDQDEANFVSSLTGLIAEWGFDGLDVDLESGSNLVHGSQIQARLGRALLQIEQNMGGDMYLTMAPEHPYVQGGYVAYSGIWGAYIPVINDTRSTLDLLHVQLYNNGGLPNPYLPSSAPEGSVDMMVAQSKMLIEGFELADGTQFAPLRDDQVAIGLPSGPSSANSGQAPTQNILNALDCLTKGTSCGTVKPAFNYPNYAGVMTWSINWDQHDGFNFSKPVGDKLTQMNAEGHHHHHH | soluble
MSLSDDRLSLQTFLTRVTAVRLKLQQVVTAPDPEAMIQVLAQTVFQGKGADLTDIQAYGNLIAASLGADWGPAANTLFVRPLDQAWQQILLPSSAGLNRAWQRAIVDEWQGAFSGRYPFAATSSDASLPMLGQMIRADSGRIEQFLAQQLMGLLRKEGSRWVADSRQSQGLRFNPDFLTAINQLSQLADVLYTDGGMGVSFELQGKPVRDVVQTTFVLNGEKHHYFNQRESWQRFRWPGQGDHPGISEGHHHHHH | soluble
MSLSDDSTFGDATFVVLDFETTGLDPQVDEIIEIGAVKIQGGQIVDEYHTLIKPSREISRKSSEITGITQEMLENKRSIEEVLPEFLGFLEDSIIVAHNANFDYRFLRLWIKKVMGLDWERPYIDTLALAKSLLKLRSYSLDSVVEKLGLGPFRHHRALDDARVTAQVFLRFVEMMKKEGHHHHHH | soluble
MSLSDNITIKDVRTYSVSAEGGGDYHLQEKGHWITDTYISNPMSMYPDYKKTRTSWGIGVLGSVVVEIELSNGIVGVATGLGGEPACWLIQHHFKRFLINQSPKNLNLIWDQMFKASMFYGRKGITICAISVVDLALWDSLGILRDEPVWQMIGGKVRDEIHFYCTGPLPVETRKMGFWGSKVPLPFGPGDGHEGLEKNYEYLKKHRDSVPEKFPLMVDCYMSLNVQYAIQLAKRCEDLNINWWEEVLHPDDIDGYKQIKLAHPDKKWTTGEHEYTRYGFRQLIETRSIDILQPDVMWVGGMTELLKISAMAAAYDLPVVPHGSGPYSSHFIFSQPHSPFCEYIAGSPDGKKVIKMFPYFDGEQLPENGKIKPSYDPGFGMKIANKDTLIEIKQNEGHHHHHH | soluble
MSLSDTHIPLPERLRPRDLSEIIGQDHLLGEHAPLRQMIDQGHLPSIIFWGPPGVGKTTIALLLAQAVDRPFVSLSALNTGVKELREIIAESGDLLTPVVFIDEIHRFNKSQQDALLNAVEKGKITLIGATTENPSFEVNSALLSRCQVYTLNVLDSAAIQNLIDRAIDSDSFLKQRHIHIEEYEALIQFAAGDARKALNLIDLIASTFEPDQENIVTNAVTVKVAQQNIARYDKSGEQHYDIISAFIKSIRGSDPDAALYWMARMIKGGEDPVFIARRMLIAASEDIGNSNPNALLLAGECFRSVQAVGMPEARIILGQCAVYLATSPKSNSTYLAIDRALALAEKTANLPVPLHLRNAPTKLMKQQGYGADYLYPHHYPEHFVLQEYLPPELKGTKLYEFSRNKREVEGERLQQRRWQQDQEGHHHHHH | soluble
MSLSEDKMDLYLQQGMYGPLETKPDERHLFLGSLRERVVLALTKGQVLRSKPYKEAEHELKNSHNVTLLINGELQYQSYSSYIQMASRYGVPFKIVSDLQFHTPLGIVIAADIAVNRELIYIQDDIYNRSVLKSEGHHHHHH | soluble
MSLSEDLRFFEFFAGGGMARAGLGNQWQCLFANDMDRIKASTYIQNWGKDHFDSRDIREVNSEDLERNGDLAWASFPCQDLSVAGNGLGIGSSSAKDFTRSGALWPFLDLIDTLRQEERQPPLLVLENVVGLLTLEGGRDFAAICERLGEIGYRYGAVIIDAKHFLPQSRPRVFIIAVQRNIDIPCKLSRGMATANWHTPTLLRAYKSLTPILHADWVWWELGDAPILQENALESFIQREGVLWNTPEETKRIISMMAPAHLARLENAKCAGGVAVGSLYLRMRREGGINKQRAEITFSPLLGCLRTPRGGASRPRIIVVESGHVRTRLLTICEAARLMGLANTYILPEIYHHAFKVIGDGVAVPAVRFLAERLLEPLAIAAEGHHHHHH | not soluble
MSLSEENVKLAEELIRKGYNEKKIRSLLKLPDEEFKLALEVARARIKAKDKFSRSDLWFDLEGLRYATHEVVADYRGRRLKGQGVKSIADVSCGVGIQLIFFAKHGIRSVGIDIDPIKIEFAKRNAEKYGVEVEWVVGDALSPEIIEKVDAEVIFSDPARPPEVPERNLEDLLPSPLKIYEAYKHKTDSFIFDLPPQIRREKVPWKGEFEYIDLFGHVNRLTFYTEPLAKAERSAVILPQGARLESNPDLENIVEETMEPERYIYEIPQSIDYADLINELFHKVNGELKLLLREKRRILATSNDEVKSEYFKRSYIVVKVMPFHPVRINDFLRREGYGRATLRMSVDEKEYWRIRKKIESGLSGDKRAFVFKVRDLAVIAEEIPQAEGHHHHHH | soluble
